Entries after “also recorded” stand apart in the source; their conditions may differ.
System: pCRE-Luc reporter (cyclic AMP response element)
Assay: pCRE-Luc reporter assay of CREAP1 deletion fragments in Hela cells
Type: cell-based
Details: for Activity: Flag-CREAP1 deletion constructs co-transfected with pCRE-Luc in Hela cells, Dual-Glo Luciferase 40 hrs after transfection
Method: CREAP1 protein amino acids 1-170, 1-356, […], 1-580 and 170-650 are inserted into pFlag-CMV4 expression vector (Sigma, St. Louis, Mo.) by utilizing PCR strategy familiar to one of skill in the art. 10^4 Hela cells are split into each well of 96 well tissue culture plates. Cells are transfected 16 hours later with 100 ng of pCRE-Luc reporter construct, 30 ng of Renilla luciferase control plasmid together with 100 ng of pCMVSPORT6, pCMVSPORT-CREAP1 and different Flag-CREAP1 deletion fusion constructs respectively. Transfection is done with Fugene6 reagent (Roche Applied Biosciences) following the manufacturer's instructions. A Dual-Glo Luciferase assay (Promega) is conducted 40 hrs after transfection. Firefly luciferase counts are normalized to Renilla luciferase and plotted.
To dissect the functional domains within the CREAP1 molecule, CREAP1 protein fragments of amino acids 1-170, 1-356, 1-494, 1-580 and 170-650 were subcloned into pFlag-CMV4 vector by utilizing PCR based strategy and tested for function in a Dual Glo Luciferase assay as described above.

B1: K5: CREAP1 fragment, amino acids 170-650, SEQ ID NO 36, Flag fusion (protein)
chain: ALHQSTMTPTQPESFSSGSQDVHQKRVLLLTVPGMEETTSEADKNLSKQAWDTKKTGSRPKSCEVPGINIFPSADQENTTALIPATHNTGGSLPDLTNIHFPSPLPTPLDPEEPTFPALSSSSSTGNLAANLTHLGIGGAGQGMSTPGSSPQHRPAGVSPLSLSTEARRQQASPTLSPLSPITQAVAMDALSLEQQLPYAFFTQAGSQQPPPQPQPPPPPPPASQQPPPPPPPQAPVRLPPGGPLLPSASLTRGPQPPPLAVTVPSSLPQSPPENPGQPSMGIDIASAPALQQYRTSAGSPANQSPTSPVSNQGFSPGSSPQHTSTLGSVFGDAYYEQQMAARQANALSHQLEQFNMMENAISSSSLYSPGSTLNYSQAAMMGLTGSHGSLPDSQQLGYASHSGIPNIILTVTGESPPSLSKELTSSLAGVGDVSFDSDSQFPLDELKIDPLTLDGLHMLNDPDMVLADPATEDTFRMDRL
modifications: Flag tag; human
In the case of B1, the Activity is reported as “lacked almost all stimulating activity” and the Activity (listed as KS) is reported as “Inactive”.

B2: K4: CREAP1 fragment, amino acids 1-580, SEQ ID NO 35, Flag fusion (protein)
chain: MATSNNPRKFSEKIALHNQKQAEETAAFEEVMKDLSLTRAARLQLQKSQYLQLGPSRGQYYGGSLPNVNQIGSGTMDLPFQPSGFLGEALAAAPVSLTPFQSSGLDTSRTTRHHGLVDRVYRERGRLGSPHRRPLSVDKHGRQADSCPYGTMYLSPPADTSWRRTNSDSALHQSTMTPTQPESFSSGSQDVHQKRVLLLTVPGMEETTSEADKNLSKQAWDTKKTGSRPKSCEVPGINIFPSADQENTTALIPATHNTGGSLPDLTNIHFPSPLPTPLDPEEPTFPALSSSSSTGNLAANLTHLGIGGAGQGMSTPGSSPQHRPAGVSPLSLSTEARRQQASPTLSPLSPITQAVAMDALSLEQQLPYAFFTQAGSQQPPPQPQPPPPPPPASQQPPPPPPPQAPVRLPPGGPLLPSASLTRGPQPPPLAVTVPSSLPQSPPENPGQPSMGIDIASAPALQQYRTSAGSPANQSPTSPVSNQGFSPGSSPQHTSTLGSVFGDAYYEQQMAARQANALSHQLEQFNMMENAISSSSLYSPGSTLNYSQAAMMGLTGSHGSLPDSQQLGYASHSGIPNIILT
modifications: Flag tag; human
With B2 the Activity was “retains almost all wild type activity; also recorded: Fully active”.

B3: K2: CREAP1 fragment, amino acids 1-356, SEQ ID NO 33, Flag fusion (protein)
chain: MATSNNPRKFSEKIALHNQKQAEETAAFEEVMKDLSLTRAARLQLQKSQYLQLGPSRGQYYGGSLPNVNQIGSGTMDLPFQPSGFLGEALAAAPVSLTPFQSSGLDTSRTTRHHGLVDRVYRERGRLGSPHRRPLSVDKHGRQADSCPYGTMYLSPPADTSWRRTNSDSALHQSTMTPTQPESFSSGSQDVHQKRVLLLTVPGMEETTSEADKNLSKQAWDTKKTGSRPKSCEVPGINIFPSADQENTTALIPATHNTGGSLPDLTNIHFPSPLPTPLDPEEPTFPALSSSSSTGNLAANLTHLGIGGAGQGMSTPGSSPQHRPAGVSPLSLSTEARRQQASPTLSPLSPITQAVA
modifications: Flag tag; human
For B3, the Activity was “Inactive” and the “reduction of functional activity of CREAP1” value (K2 compared with K4 (removal of amino acids 356-580)) was 10 fold.

B4: K3: CREAP1 fragment, amino acids 1-494, SEQ ID NO 34, Flag fusion (protein)
chain: MATSNNPRKFSEKIALHNQKQAEETAAFEEVMKDLSLTRAARLQLQKSQYLQLGPSRGQYYGGSLPNVNQIGSGTMDLPFQPSGFLGEALAAAPVSLTPFQSSGLDTSRTTRHHGLVDRVYRERGRLGSPHRRPLSVDKHGRQADSCPYGTMYLSPPADTSWRRTNSDSALHQSTMTPTQPESFSSGSQDVHQKRVLLLTVPGMEETTSEADKNLSKQAWDTKKTGSRPKSCEVPGINIFPSADQENTTALIPATHNTGGSLPDLTNIHFPSPLPTPLDPEEPTFPALSSSSSTGNLAANLTHLGIGGAGQGMSTPGSSPQHRPAGVSPLSLSTEARRQQASPTLSPLSPITQAVAMDALSLEQQLPYAFFTQAGSQQPPPQPQPPPPPPPASQQPPPPPPPQAPVRLPPGGPLLPSASLTRGPQPPPLAVTVPSSLPQSPPENPGQPSMGIDIASAPALQQYRTSAGSPANQSPTSPVSNQGFSPGSSPQHTS
modifications: Flag tag; human
For B4, the Activity was “Partially Active”.
